Test results from patent US20090099029.

T1: Bovine, dephosphorylated, Myelin Basic Protein (MBP), P02687
T1 chain: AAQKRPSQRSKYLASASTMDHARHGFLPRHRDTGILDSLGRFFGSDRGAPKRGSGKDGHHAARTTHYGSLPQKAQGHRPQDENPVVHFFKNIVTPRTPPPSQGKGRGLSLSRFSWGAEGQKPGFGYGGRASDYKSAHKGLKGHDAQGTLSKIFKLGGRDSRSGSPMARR

B1: EPHB2 (protein)
chain: CNRRGFERADSEYTDKLQHYTSGHMTPGMKIYIDPFTYEDPNEAVREFAKEIDISCVKIEQVIGAGEFGEVCSGHLKLPGKREIFVAIKTLKSGYTEKQRRDFLSEASIMGQFDHPNVIHLEGVVTKSTPVMIITEFMENGSLDSFLRQNDGQFTVIQLVGMLRGIAAGMKYLADMNYVHRDLAARNILVNSNLVCKVSDFGLSRFLEDDTSDPTYTSALGGKIPIRWTAPEAIQYRKFTSASDVWSYGIVMWEVMSYGERPYWDMTNQDVINAIEQDYRLPPPMDCPSALHQLMLDCWQKDRNHRPKFGQIVNTLDKMIRNPNSLKAMAPLSSGINLPLLDRTIPDYTSFNTVDEWLEAIKMGQYKESFANAGFTSFDVVSQMMMEDILRVGVTLAGHQKKILNSIQVMRAQMNQIQSVEV
B2: PRKCI (protein)
chain: MPTQRDSSTMSHTVAGGGSGDHSHQVRVKAYYRGDIMITHFEPSISFEGLCNEVRDMCSFDNEQLFTMKWIDEEGDPCTVSSQLELEEAFRLYELNKDSELLIHVFPCVPERPGMPCPGEDKSIYRRGARRWRKLYCANGHTFQAKRFNRRAHCAICTDRIWGLGRQGYKCINCKLLVHKKCHKLVTIECGRHSLPQEPVMPMDQSSMHSDHAQTVIPYNPSSHESLDQVGEEKEAMNTRESGKASSSLGLQDFDLLRVIGRGSYAKVLLVRLKKTDRIYAMKVVKKELVNDDEDIDWVQTEKHVFEQASNHPFLVGLHSCFQTESRLFFVIEYVNGGDLMFHMQRQRKLPEEHARFYSAEISLALNYLHERGIIYRDLKLDNVLLDSEGHIKLTDYGMCKEGLRPGDTTSTFCGTPNYIAPEILRGEDYGFSVDWWALGVLMFEMMAGRSPFDIVGSSDNPDQNTEDYLFQVILEKQIRIPRSLSVKAASVLKSFLNKDPKERLGCHPQTGFADIQGHPFFRNVDWDMMEQKQVVPPFKPNISGEFGLDNFDSQFTNEPVQLTPDDDDIVRKIDQSEFEGFEYINPLLMSAEECV
B3: NEK2 (protein)
chain: MPSRAEDYEVLYTIGTGSYGRCQKIRRKSDGKILVWKELDYGSMTEAEKQMLVSEVNLLRELKHPNIVRYYDRIIDRTNTTLYIVMEYCEGGDLASVITKGTKERQYLDEEFVLRVMTQLTLALKECHRRSDGGHTVLHRDLKPANVFLDGKQNVKLGDFGLARILNHDTSFAKTFVGTPYYMSPEQMNRMSYNEKSDIWSLGCLLYELCALMPPFTAFSQKELAGKIREGKFRRIPYRYSDELNEIITRMLNLKDYHRPSVEEILENPLIADLVADEQRRNLERRGRQLGEPEKSQDSSPVLSELKLKEIQLQERERALKAREERLEQKEQELCVRERLAEDKLARAENLLKNYSLLKERKFLSLASNPELLNLPSSVIKKKVHFSGESKENIMRSENSESQLTSKSKCKDLKKRLHAAQLRAQALSDIEKNYQLKSRQILGMR
B4: PAK6 (protein)
chain: MFRKKKKKRPEISAPQNFQHRVHTSFDPKEGKFVGLPPQWQNILDTLRRPKPVVDPSRITRVQLQPMKTVVRGSAMPVDGYISGLLNDIQKLSVISSNTLRGRSPTSRRRAQSLGLLGDEHWATDPDMYLQSPQSERTDPHGLYLSCNGGTPAGHKQMPWPEPQSPRVLPNGLAAKAQSLGPAEFQGASQRCLQLGACLQSSPPGASPPTGTNRHGMKAAKHGSEEARPQSCLVGSATGRPGGEGSPSPKTRESSLKRRLFRSMFLSTAATAPPSSSKPGPPPQSKPNSSFRPPQKDNPPSLVAKAQSLPSDQPVGTFSPLTTSDTSSPQKSLRTAPATGQLPGRSSPAGSPRTWHAQISTSNLYLPQDPTVAKGALAGEDTGVVTHEQFKAALRMVVDQGDPRLLLDSYVKIGEGSTGIVCLAREKHSGRQVAVKMMDLRKQQRRELLFNEVVIMRDYQHFNVVEMYKSYLVGEELWVLMEFLQGGALTDIVSQVRLNEEQIATVCEAVLQALAYLHAQGVIHRDIKSDSILLTLDGRVKLSDFGFCAQISKDVPKRKSLVGTPYWMAPEVISRSLYATEVDIWSLGIMVIEMVDGEPPYFSDSPVQAMKRLRDSPPPKLKNSHKVSPVLRDFLERMLVRDPQERATAQELLDHPFLLQTGLPECLVPLIQLYRKQTSTC
B5: EPHB1 (protein)
chain: SRKRAYSKEAVYSDKLQHYSTGRGSPGMKIYIDPFTYEDPNEAVREFAKEIDVSFVKIEEVIGAGEFGEVYKGRLKLPGKREIYVAIKTLKAGYSEKQRRDFLSEASIMGQFDHPNIIRLEGVVTKSRPVMIITEFMENGALDSFLRQNDGQFTVIQLVGMLRGIAAGMKYLAEMNYVHRDLAARNILVNSNLVCKVSDFGLSRYLQDDTSDPTYTSSLGGKIPVRWTAPEAIAYRKFTSASDVWSYGIVMWEVMSFGERPYWDMSNQDVINAIEQDYRLPPPMDCPAALHQLMLDCWQKDRNSRPRFAEIVNTLDKMIRNPASLKTVATITAVPSQPLLDRSIPDFTAFTTVDDWLSAIKMVQYRDSFLTAGFTSLQLVTQMTSEDLLRIGITLAGHQKKILNSIHSMRVQISQSPTAMA
B6: PAK1 (protein)
chain: MSNNGLDIQDKPPAPPMRNTSTMIGAGSKDAGTLNHGSKPLPPNPEEKKKKDRFYRSILPGDKTNKKKEKERPEISLPSDFEHTIHVGFDAVTGEFTGMPEQWARLLQTSNITKSEQKKNPQAVLDVLEFYNSKKTSNSQKYMSFTDKSAEDYNSSNALNVKAVSETPAVPPVSEDEDDDDDDATPPPVIAPRPEHTKSVYTRSVIEPLPVTPTRDVATSPISPTENNTTPPDALTRNTEKQKKKPKMSDEEILEKLRSIVSVGDPKKKYTRFEKIGQGASGTVYTAMDVATGQEVAIKQMNLQQQPKKELIINEILVMRENKNPNIVNYLDSYLVGDELWVVMEYLAGGSLTDVVTETCMDEGQIAAVCRECLQALEFLHSNQVIHRDIKSDNILLGMDGSVKLTDFGFCAQITPEQSKRSTMVGTPYWMAPEVVTRKAYGPKVDIWSLGIMAIEMIEGEPPYLNENPLRALYLIATNGTPELQNPEKLSAIFRDFLNRCLEMDVEKRGSAKELLQHQFLKIAKPLSSLTPLIAAAKEATKNNH
B7: PHKG2 (protein)
chain: MTLDVGPEDELPDWAAAKEFYQKYDPKDVIGRGVSSVVRRCVHRATGHEFAVKIMEVTAERLSPEQLEEVREATRRETHILRQVAGHPHIITLIDSYESSSFMFLVFDLMRKGELFDYLTEKVALSEKETRSIMRSLLEAVSFLHANNIVHRDLKPENILLDDNMQIRLSDFGFSCHLEPGEKLRELCGTPGYLAPEILKCSMDETHPGYGKEVDLWACGVILFTLLAGSPPFWHRRQILMLRMIMEGQYQFSSPEWDDRSSTVKDLISRLLQVDPEARLTAEQALQHPFFERCEGSQPWNLTPRQRFRVAVWTVLAAGRVALSTHRVRPLTKNALLRDPYALRSVRHLIDNCAFRLYGHWVKKGEQQNRAALFQHRPPGPFPIMGPEEEGDSAAITEDEAVLVLG
B8: PRKCE (protein)
chain: MVVFNGLLKIKICEAVSLKPTAWSLRHAVGPRPQTFLLDPYIALNVDDSRIGQTATKQKTNSPAWHDEFVTDVCNGRKIELAVFHDAPIGYDDFVANCTIQFEELLQNGSRHFEDWIDLEPEGRVYVIIDLSGSSGEAPKDNEERVFRERMRPRKRQGAVRRRVHQVNGHKFMATYLRQPTYCSHCRDFIWGVIGKQGYQCQVCTCVVHKRCHELIITKCAGLKKQETPDQVGSQRFSVNMPHKFGIHNYKVPTFCDHCGSLLWGLLRQGLQCKVCKMNVHRRCETNVAPNCGVDARGIAKVLADLGVTPDKITNSGQRRKKLIAGAESPQPASGSSPSEEDRSKSAPTSPCDQEIKELENNIRKALSFDNRGEEHRAASSPDGQLMSPGENGEVRQGQAKRLGLDEFNFIKVLGKGSFGKVMLAELKGKDEVYAVKVLKKDVILQDDDVDCTMTEKRILALARKHPYLTQLYCCFQTKDRLFFVMEYVNGGDLMFQIQRSRKFDEPRSRFYAAEVTSALMFLHQHGVIYRDLKLDNILLDAEGHCKLADFGMCKEGILNGVTTTTFCGTPDYIAPEILQELEYGPSVDWWALGVLMYEMMAGQPPFEADNEDDLFESILHDDVLYPVWLSKEAVSILKAFMTKNPHKRLGCVASQNGEDAIKQHPFFKEIDWVLLEQKKIKPPFKPRIKTKRDVNNFDQDFTREEPVLTLVDEAIVKQINQEEFKGFSYFGEDLMP
B9: PAK3 (protein)
chain: MSDGLDNEEKPPAPPLRMNSNNRDSSALNHSSKPLPMAPEEKNKKARLRSIFPGGGDKTNKKKEKERPEISLPSDFEHTIHVGFDAVTGEFTGIPEQWARLLQTSNITKLEQKKNPQAVLDVLKFYDSKETVNNQKYMSFTSGDKSAHGYIAAHPSSTKTASEPPLAPPVSEEEDEEEEEEEDENEPPPVIAPRPEHTKSIYTRSVVESIASPAVPNKEVTPPSAENANSSTLYRNTDRQRKKSKMTDEEILEKLRSIVSVGDPKKKYTRFEKIGQGASGTVYTALDIATGQEVAIKQMNLQQQPKKELIINEILVMRENKNPNIVNYLDSYLVGDELWVVMEYLAGGSLTDVVTETCMDEGQIAAVCRECLQALDFLHSNQVIHRDIKSDNILLGMDGSVKLTDFGFCAQITPEQSKRSTMVGTPYWMAPEVVTRKAYGPKVDIWSLGIMAIEMVEGEPPYLNENPLRALYLIATNGTPELQNPERLSAVFRDFLNRCLEMDVDRRGSAKELLQHPFLKLAKPLSSLTPLIIAAKEAIKNSSR
B10: NEK3 (protein)
chain: MDDYMVLRMIGEGSFGRALLVQHESSNQMFAMKEIRLPKSFSNTQNSRKEAVLLAKMKHPNIVAFKESFEAEGHLYIVMEYCDGGDLMQKIKQQKGKLFPEDMILNWFTQMCLGVNHIHKKRVLHRDIKSKNIFLTQNGKVKLGDFGSARLLSNPMAFACTYVGTPYYVPPEIWENLPYNNKSDIWSLGCILYELCTLKHPFQANSWKNLILKVCQGCISPLPSHYSYELQFLVKQMFKRNPSHRPSATTLLSRGIVARLVQKCLPPEIIMEYGEEVLEEIKNSKHNTPRKKTNPSRIRIALGNEASTVQEEEQDRKGSHTDLESINENLVESALRRVNREEKGNKSVHLRKASSPNLHRRQWEKNVPNTALTALENASILTSSLTAEDDRGGSVIKYSKNTTRKQWLKETPDTLLNILKNADLSLAFQTYTIYRPGSEGFLKGPLSEETEASDSVDGGHDSVILDPERLEPGLDEEDTDFEEEDDNPDWVSELKKRAGWQGLCDR
B11: PLK3 (protein)
chain: SGRTYLKGRLLGKGGFARCYEATDTETGSAYAVKVIPQSRVAKPHQREKILNEIELHRDLQHRHIVRFSHHFEDADNIYIFLELCSRKSLAHIWKARHTLLEPEVRYYLRQILSGLKYLHQRGILHRDLKLGNFFITENMELKVGDFGLAARLEPPEQRKKTICGTPNYVAPEVLLRQGHGPEADVWSLGCVMYTLLCGSPPFETADLKETYRCIKQVHYTLPASLSLPARQLLAAILRASPRDRPSIDQILRHDFFTKGYTPDRLPISSCVTVPDLTPPNPA

Molecular target: T1, Bovine, dephosphorylated, Myelin Basic …
In the case of B1, the “MBP Kinase Activity” value is reported as “Strong”. For B2, the “MBP Kinase Activity” value was “Strong”. B3 was tested, and the “MBP Kinase Activity” value was “Strong”. For B4, the “MBP Kinase Activity” value was “Negative”. For B5, the “MBP Kinase Activity” value was “Strong”. In the case of B6, the “MBP Kinase Activity” value is reported as “Negative”. B7 was tested, and the “MBP Kinase Activity” value was “Negative”. For B8, the “MBP Kinase Activity” value was “Strong”. With B9 the “MBP Kinase Activity” value was “Weak”. For B10, the “MBP Kinase Activity” value was “Negative”. For B11, the “MBP Kinase Activity” value was “Negative”.
